Source: patent US20220227853A1 (US Dept. of Health and Human Services, published 2022)

Target: T1, full-length PfCSP on the surface of transgenic P. berghei sporozoites (Pb-PfCSP) (Plasmodium falciparum, UniProt Q7K740 19-374)
T1 construct: whole, on cells; also called Pb-PfCSP SPZ; Pb-PfCSP SPZ GFP/Luc
Assay: flow cytometry on Pb-PfCSP sporozoites, mAb 20 µg/mL, MFI

T1 sequence (Q7K740 19-374): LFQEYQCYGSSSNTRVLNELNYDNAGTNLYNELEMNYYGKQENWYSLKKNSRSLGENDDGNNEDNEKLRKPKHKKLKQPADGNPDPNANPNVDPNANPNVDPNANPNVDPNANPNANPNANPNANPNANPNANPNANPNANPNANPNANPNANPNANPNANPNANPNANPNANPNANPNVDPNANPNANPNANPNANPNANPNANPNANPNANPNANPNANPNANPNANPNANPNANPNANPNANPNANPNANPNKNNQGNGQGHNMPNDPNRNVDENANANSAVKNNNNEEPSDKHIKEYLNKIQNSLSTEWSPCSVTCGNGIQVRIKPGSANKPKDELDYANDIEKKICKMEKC

B1: CIS43 human monoclonal antibody (antibody, V domains shown)
VH: QVQLVQSGAEVKKPGASVKVSCKASGYTFTSYAIHWVRQAPGQRLEWMGWIKAGNGNTRYSQKFQDRVTITRDTSTTTAYMELSSLRSEDTAVYYCALLTVLTPDDAFDIWGQGTMVTVSS
VL: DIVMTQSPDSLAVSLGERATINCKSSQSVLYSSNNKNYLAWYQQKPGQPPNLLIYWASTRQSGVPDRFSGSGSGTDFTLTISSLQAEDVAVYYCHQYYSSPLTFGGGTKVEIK
notes: also called CIS43 IgG
B1: binds.
